Test results published in PMC9774438 (2022).

Assays:
[1] = target: T1, Hm-AMP8 (synthetic construct); assay: Celestine Blue B chlorinating activity assay (varying Cl-, uncompetitive inhibition)
T1 chain: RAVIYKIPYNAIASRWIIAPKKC

[2] = target: T1, Hm-AMP8; assay: Celestine Blue B chlorinating activity assay (varying H2O2, uncompetitive inhibition)
[3] = target: T2, pept_1545 (synthetic construct); assay: as above
T2 chain: FLIGKAIKRKFCLRSVWNA

[4] = target: T1, Hm-AMP8; assay: Amplex Red peroxidase activity assay (varying Amplex Red, mixed inhibition)
[5] = target: T2, pept_1545; assay: as above
[6] = target: T2, pept_1545; assay: Celestine Blue B chlorinating activity assay (varying Cl-, competitive inhibition)
[7] = target: T1, Hm-AMP8; assay: Amplex Red peroxidase activity assay (varying H2O2, uncompetitive inhibition)
[8] = target: T2, pept_1545; assay: as above

- Ki [1]: 0.42 µM
- Ki [2]: 0.28 µM
- Ki [3]: 10.8 µM
- Ki [4]: 1.1 µM
- Ki [5]: 48.3 µM
- Ki [6]: 19.5 µM
- Ki [7]: 1.79 µM
- Ki [8]: 52.8 µM
B1: Myeloperoxidase (protein)
chain: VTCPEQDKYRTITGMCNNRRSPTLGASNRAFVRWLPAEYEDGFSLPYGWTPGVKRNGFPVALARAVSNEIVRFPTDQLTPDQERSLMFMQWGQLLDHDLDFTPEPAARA
